Tests used:
[1] = test system: G. vaginalis sensu stricto strain Gv_9; test: Quantitative reduction in viable CFU assay in bacterial suspension; assay type: cell-based, Gardnerella vaginalis sensu stricto; settings: Gv_9; 5 hours, pH 5.0, anaerobic; 10 ul endolysin (0.2 mg/ml where possible) + 90 ul 5e7 CFU/ml; average of triplicate
Method: The lysis activity on the four main species of Gardnerella of 91 constructs (natural and domain-swapped endolysins) was quantitatively assessed using the method described in Reference Example 2. […]
(§1) The results are shown in FIGS. 8A to 8D together with Tables 5A to 5C. In FIGS. 8A to 8D, the logarithmic Y axis depicts the count of surviving cells. The dotted line indicates the limit of detection (LOD) given by plating of 2 ul of the reaction mix (500 CFU/ml). Each combination of the natural 10 H-domains and the natural 9 B-regions was assessed, including the natural endolysins (H1B1, H2B2, H3B3, etc.), plus H6B6. […] The activity of each construct was measured on each of the 4 main Gardnerella species G. vaginalis sensu stricto, G. leopoldii, G. piotii, and G. swidsinkii. All conditions have been measured in triplicate. The survival after 5 hours incubation at pH 5.0 under anaerobic conditions with endolysins vs. buffer was measured by quantitative plating. The values indicate the log 10 of the ratio of surviving CFU for treated vs. untreated cells. The average of the triplicate measurements is used. In tables 5A and 5B, high negative log 10 values, e.g. −6.7, −5.5, −4.8 etc. are associated with high enzymatic activity, while log 10 values closer to zero or even positive log 10 values are associated with low or no enzymatic activity. […] Inversely, a reduction value of −3.7 means a 10^3.7-fold (=5012-fold) reduction of viable CFU in treated sample vs. untreated control.
(§2) Gardnerella cells were recovered from cryo stock by plating on Chocolate Agar plates (Beckton Dickinson) and incubating for 48 h at 37° C. under anaerobic conditions. For Lactobacilli, BD Schaedler/5% sheep blood agar plates were used instead. Colonies were scraped from the plate, resuspended in Hardy Broth or NYC-III-HS-5.0 at the pH as indicated, and the suspension adjusted to OD (610 or 620 nm as indicated) 0.1. It has to be noted that two Tecan Microplate readers, having respectively a 610 nm or 620 nm filter, have been used interchangeably in the experiments. Although it doesn't make any difference for the experiments, the exact wavelength used is specified in each example. If not stated otherwise, 90 μl cell suspension was mixed with 10 μl endolysin solution, for the different species/endolysin combinations, in 384-well plates. OD(610-620 nm as indicated) was measured at the beginning of the reaction and at the end, either as two measurement points or as a continuous kinetic in a Tecan F200 Microplate reader. The reactions were incubated for 5 hours (or otherwise the time indicated) at 37° C. under anaerobic, micro-aerophilic or aerobic conditions as indicated. Anaerobic conditions intend that oxygen was fully depleted from the container in which the bacteria are incubated (Sigma-Aldrich anaerobic jar or sealable lunch box) with an anaerobic sachet, and the lack of oxygen was confirmed with an anaerobic indicator inside the container. Where micro-aerophilic conditions are indicated, the candle-in-a-jar method was used (tea candle lit in an appropriate sealable container, which reduces oxygen levels until the flame dies out). Then each well was diluted in 5 steps (10^−1 to 10^−5) using 96-U-well bottom plates, and 2 μl of each dilution of each reaction mix are plated on BD Chocolate agar plates or BD Schaedler/5% sheep blood agar plates for Gardnerella and Lactobacilli, respectively, for detecting and quantifying surviving CFU. Detection plates were incubated at 37° C. for 48 hours under anaerobic conditions.

[2] = test system: G. leopoldii strain Gv_11; test: as above; assay type: cell-based, Gardnerella leopoldii; settings: 5 hours, pH 5.0, anaerobic, 10 ul endolysin (0.2 mg/ml where possible) + 90 ul 5e7 CFU/ml, average of triplicate
Method: (§3) The lysis activity on the four main species of Gardnerella of 91 constructs (natural and domain-swapped endolysins) was quantitatively assessed using the method described in Reference Example 2. Briefly, 90 ul 5e7 CFU/ml of the indicated strain were incubated for 5 hours at pH 5.0 under anaerobic conditions with 10 ul endolysin (concentration adjusted to 0.2 mg/ml where possible, see Table 4).
as §1, §2

[3] = test system: four Gardnerella strains (Gv_9, Gv_11, Gv_17, Gv_23); test: CFU reduction averaged across the four Gardnerella strains, with activity ranks; assay type: cell-based; settings: for average of the log 10 activities of each construct across the four Gardnerella strains: pH 5.0, 5 hours, anaerobic; for activity rank of all endolysins: rank 1-91, based on the data of Table 5B
Method: as §3, §1
as §2, with “out).” for “out). Then each well was diluted in 5 steps (10^−1 to 10^−5) using 96-U-well bottom plates, and 2 μl of each dilution of each reaction mix are plated on BD Chocolate agar plates or BD Schaedler/5% sheep blood agar plates for Gardnerella and Lactobacilli, respectively, for detecting and quantifying surviving CFU. Detection plates were incubated at 37° C. for 48 hours under anaerobic conditions.”

G. piotii strain Gv_17 = test: Quantitative reduction in viable CFU assay in bacterial suspension; assay type: cell-based, Gardnerella piotii; settings: 5 hours, pH 5.0, anaerobic, 10 ul endolysin (0.2 mg/ml where possible) + 90 ul 5e7 CFU/ml, average of triplicate
Method: as §3, §1, §2

Molecule	log 10 of the ratio of surviving CFU for treated vs. untreated cells [1]	log 10 of the ratio of surviving CFU for treated vs. untreated cells [2]	average of the log 10 activities of each construct across the four Gardnerella strains [3]	activity rank of all endolysins [3]	log 10 of the ratio of surviving CFU for treated vs. untreated cells (G. piotii strain Gv_17)
H11B11: natural Gardnerella prophage endolysin from strain JCP8017A (protein, EL11_strain_JCP8017A, natural Gardnerella prophage endolysin from strain JCP8017A) MSKRGIDVSVWQGDIDFNAVKASGVEFVIIRAGYGIGHKDKWFEQNYRKAKTTGLDVGAYWYSYASSAGEAAEEAQSCVNILSGKSFEYPVYFDLEEKSQLNRGRDFCDSLITSFCNKLETYGYYAGFYTSLSVANNLVSSHVRDRYALWIAQWNTHCDYQGSYGLWQYSSSGSVDGIAGRVDMDYTYVDYPSVIKKAGLNGYKNGGSYTAPQTSSIDEVAREVINGDWGNGNERKNRLTSAGYDYTSVQNKVNELLGVKAYRKSVDELAREVIRGTWGNGSTRKQRLTQAGYDYDAVQKRVNELL	0.1 log 10	−1.6 log 10	−1.5 log 10	57	−1.0 log 10
H12B12: natural Gardnerella prophage endolysin from strain 3549624 (protein, EL12_strain_3549624_non-prophage) MSKKGIDVSVWQGDIDFNAVKASGVEFVIIRAGYGIGHKDKWFEENYRKAKTAGLDVGSYWYSYASSAGEVALEAQSCVNILSGKSFEYPVYFDLEEKSQLNRGRDFCDSLITSFCNKLEACGYYAGFYTSLSVANNLVSSHVRDRYALWIAQWNTHCSYQGSYGLWQYSSSGSVNGIAGRVDMDYAYVDYPSVIKNAGLNGYQNGGSYTAPQTSSIDEVAREVINGDWGNGIERKNRLTSAGYDYTSVQNKVNELLGVKAYRKSVDELAREVIRGTWGNGKTRKQRLTQAGYDYNAVQKRVNELL	−0.2 log 10	−1.0 log 10	−0.9 log 10	73	−0.3 log 10
H10B10: natural Gardnerella prophage endolysin from strain G30-4 (protein, EL10_strain_G30-4) MSKRGIDVSVWQGDIDFNAVKASGVEFVIIRAGYGIGHKDKWFEENYRKAKTVGLDVGAYWYSYASSAGEASEEAQSCVNILSGKSFEYPVYFDLEEKSQLNRGRDFCDSLITSFCNKLEACGYYAGFYTSLSVANNLVSSHVRDRYALWIAQWNTHCSYQGSYGLWQYSSSGSVNGIAGRVDMDYAYVDYPSVIKNAGLNGYKNGGSYTAPQISSIDEVAREVINGDWGNGNERKQRLTSAGYDYASVQNKVNELLGVKAYRKSVDELAREVIRGTWGNGSTRKQRLTQAGYDYNAVQKRVNELL	−3.5 log 10	−1.6 log 10	−3.3 log 10	6	−2.4 log 10

Reference: patent US20220315908A1, “NOVEL GARDNERELLA ENDOLYSINS AND USES THEREOF” (priority 2019, published 2022)
